Measured values as given in the supplement of paper PMC10567573.

B1: ZNF449 (parent)
chain: CTHCSKSFRQRAGLIMHQVTHFRG

Variants of: B1
Assay: protein stability index of a GFP-peptide fusion (GPS, HEK-293T) (PSI 1-6); higher = more stable
Conditions: c terminus: a fixed tail appended
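Note: lentivirally expressed fusions sorted by FACS into six bins by GFP to DsRed ratio, PSI derived from sequencing read proportions per bin multiplied by bin number.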

Protein stability index of substitutions, site by site:
C1: Q 3.23; R 1.93; S 1.91; T 1.5; V 1.64; W 3.78; Y 1.2
T2: C 2.09; D 1.86; E 2.4; F 1.45; G 1.5; H 1.92; I 2.7; K 2.25; L 1.97; M 1.71; N 2.29; P 1.82; Q 2.84; R 2.18; S 1.98; V 1.98
H3: D 3.44; E 2.11; F 2.09; K 2.22; L 2.08; M 2.42; N 2.18; P 1.04; Q 1.45; R 1.77; S 1.66; T 2.09; W 1.38; Y 2.28
C4: A 2.6; D 1.66; E 1.77; G 1.8; H 2.39; I 2.58; K 1.63; L 2.13; M 1.68; N 2.17; P 1.6; Q 1.98; R 2.11; S 1.33; T 2.18; V 1.58; W 3.01
S5: A 1.98; C 2.1; D 1.73; E 1.67; F 1.7; G 2.06; H 2.03; K 2.52; L 1.49; M 1.56; N 1.88; P 2.28; R 1.7; T 1.49; W 2.06; Y 2.75
K6: A 4.92; C 1.52; D 1.62; E 1.58; I 2.47; L 2.3; M 1.88; Q 3.32; R 1.91; T 2.84; Y 2.62
S7: A 2.14; C 2.98; D 2.18; E 2.29; F 2.49; I 1.73; K 2.62; L 2.69; M 1.57; N 2.58; P 1.59; Q 1.76; R 1.31; T 1.08; V 2.22; W 1.78; Y 2.44
F8: A 1.91; C 2.74; D 1.54; E 2.19; H 1.44; I 2.15; K 1.9; L 1.79; M 1.38; N 2.04; P 1.81; Q 2.17; R 2.1; S 2.43; T 1.7; V 1.07; Y 3.03
R9: A 2.58; C 2.33; D 3.85; E 2.15; G 2.18; H 1.87; I 1.94; K 2.81; L 1.96; M 2.9; N 2.77; P 2.29; Q 2.63; S 3.04; T 2.77; V 3.17; W 2.07; Y 1.79
Q10: A 2.51; C 2.43; D 3.41; E 2.61; F 1.9; H 2.13; I 1.67; K 2.58; L 1.59; M 1.86; N 2.15; P 1.76; R 1.6; S 1.99; T 2.75; V 2.19; W 2.77; Y 1.95
R11: A 2.28; C 3.42; D 1.58; E 2.79; F 2.46; G 2.28; H 1.87; K 1.82; L 3.44; M 3.23; N 1.8; P 1.84; Q 1.8; S 1.48; T 1.69; V 2.23
